101 substances from the supplement of paper PMC11502859 can be followed below.

Where “and” joins values, the source holds several entries; their conditions need not be identical. Identical values can stand only once.
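Note: lentiviral eGFP-IRES-mCherry reporter pool sorted by FACS 96 h post-transduction, gated on mCherry-high cells, Illumina read counts normalized per million, median across four biological replicates.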

Chain of EIF2AK2 (chain, as listed by the source): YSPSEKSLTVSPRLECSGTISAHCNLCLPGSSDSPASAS

The test system of this series is HEK293T. In words: median enrichment of reporter reads in eGFP-reduced (low/intermediate) vs eGFP-high sorted cells (eGFP-extension fusion abundance) (ratio); higher = stronger loss of eGFP-fusion protein abundance (more destabilising extension).
Take EFK [BBS9]: the median enrichment was found to be 0.267.
As for EFLSHSPTSTTTGQLSPFPTL [RNASE13], the median enrichment stood at 0.565.
As for EGGALCLCLPV [CTSE], the median enrichment stood at 7.51.
For the substance “EGLATPVKAVLLLDTISSSGRAVERESNFLLEEYLCLLTLN [CDC14A]”, the median enrichment came out at 6.01.
“EGLPFPKPRVMSNCNQAQNQRPGCEIHTSLELVVSSWPQQLFPVLTG [PHF11]”: the median enrichment was 7.37.
Take EGN [CYTL1]: the median enrichment worked out at 0.312.
With EGPPCICT [PDK2] the figure was 1.79.
EGTLQSLFHIFKPH [HMCN1]: the median enrichment amounted to 7.78.
Consider EHH [SPRR2G], for which the median enrichment turned out to be 0.297.
On to EHQETLE [KLHL14], for which the median enrichment was determined as 0.343.
In the case of EHVGSVPTQCFGKCKI [DNAH5], the median enrichment is 0.681.
Regarding EIF2AK2, the median enrichment was 2.12.
Consider EIKCTRSQ [NLRC4], for which the median enrichment stood at 9.53.
As for EILGSKYTSLFKNSNLI [OR10G4], the median enrichment was determined as 11.8.
For the substance EILSLAAICKGS [TET2], the median enrichment came to 18.6.
Take “EIPQHGSLMFICCLSFLLSFPVCFQFSTSSAHPVLCPFVCVRTI [PCLO]”: the median enrichment turned out to be 8.91.
Regarding EKHLKC [FAN1], the median enrichment amounted to 0.297.
As to EKLVLCSG [ZDBF2], the median enrichment came to 5.06.
As to “EKPSRRKNSLSQFSKEPRILQRMCEDFPVLDGE [SAMD7]”, the median enrichment is 1.53.
For the substance EKSYMAKRSRSKFRSHSQGNQYLPI [SNX24], the median enrichment was 1.3.
Take “EKTVCKRSGVQEITSFDRSMYRKFKFCLRLHKLGAFLRCFSCSNLFVS [SRSF3]”: the median enrichment came out at 10.
Take EKYHLPYAARDLQTFFLPFW [SPAG11A]: the median enrichment is 6.64.
As for “ELLGQRLKPQDPCCPSRSFFLESQGKPFRAAPPSGQKLK [ALG1]”, the median enrichment is 3.82.
As for “ELLPLSTRSSWQRELRTAAALSVRWRPTSRFCPALCG [ACVR1B]”, the median enrichment was 9.04.
Turning to “ELLTAFPKALLQKRSMSVIITWLSNLFHSMEPWRRKTLSYFVTQPGIGLFGPTRFPSPEELPRPGDQC [GRM7]”, the median enrichment stood at 6.76.
For the substance “ELPGLGGLSGIAMLVAREKKSTANKTTQTKPSTA [FOXA1]”, the median enrichment turned out to be 1.47.
As to ELQEAN [GZMB], the median enrichment was 0.208.
Regarding “ELQQKNLHCYIRYRYKMQKKHQEFCLLFYFIFKLQEVFSSWDNLVLLLSIICQFLCILNKINIELK [WDR49]”, the median enrichment worked out at 2.64.
With “ELSASARRASLPNQPWVPGSRLEPAINSLFLAPGSNGGPHLRTSGEAIAPSGEVMHFLSTYCLPGPRAHGEETWAHPCRKRDN [TSSK6]” the figure was 3.11; with ELSF [ADHFE1], 0.232; with EMALSPPRSWGQ [Degron APPBP2], 10.9.
With EMCNLISLFHHNHDRW [C9orf72] the figure was 9.03; with ENSSSTMDFRLLVAVLT [ELF2], 7.29.
On to EPGNPYSFSNTGSFI [ADAM30], for which the median enrichment was 0.267.
Turning to EPKEVPGTVSDLERSQKENNIIK [CELA2A], the median enrichment stood at 0.
With “EPSPPLLCVGTGGPWPVPGHSGQGPRDISTRSWRAVRIHSACPALAGQRQGRTFGKTKTVGDRVCVYLCVSVSVCERELVSLK [TCF15]” the figure was 6.39.
Take “EPVKNHAKAKTRSAERAHGSSRLVGDQAHLICTNCSTC [OCSTAMP]”: the median enrichment came out at 3.35.
For “EPWPWAPPQGRASRNGDSPGTACPQRGGGHSWAPESLRVLPTEPLGWEGAGGLARTPTFASSSSCPAGRAPPCMMGKAILPLP [SCN1B]”, the median enrichment was determined as 2.5.
Take EQPGTAFSFPAEYC [RBM34]: the median enrichment was found to be 0.275.
For ERAPTGRWGRRG [Degron KLHDC3], the median enrichment is 5.05.
For ERSPNLQVQGRYIHI [MARK1], the median enrichment is 1.47.
Turning to “ESFHMIFCHIKHIVCLTVYRILKCSGCKTRDYLYAQNSYIFINEFNILFILVRAGQPFWVTQLIYQLIQIIEYIHNQADTS [PLS1]”, the median enrichment stood at 11.2.
On to “ESHMRRTACSDQRAQRPEDKSGGDSMGMGVGCLRERTHGLGRGERCMGITFARAAYLKVTVSSGTAGDRYLLLQEINYPENST [LEXM]”, for which the median enrichment was determined as 5.93.
For ESPLFLPTLQGPHSPYPSVQCTREETLCL [IDH3B], the median enrichment came out at 13.1.
ESSTLLLQWVQKLLRPVVK [MYLK3]: the median enrichment was 7.
With ESVAFLLFPH [NKAIN2] the figure was 6.56; with “ESYNHMQLWDRSLVLGTIHTHTPSLCLWLTSQKTLVNDHSRILTRIHVTDLTQ [CPAMD8]”, 15.9.
ETGPTHHSPSPSISTWCLVPVHSVNKKP [KLK11]: the median enrichment was found to be 2.42.
As to ETLNILSLIFN [POLK], the median enrichment amounted to 8.07.
With ETSGFSSQTF [ELP5], the median enrichment turned out to be 0.462.
With ETSSGQNRRVPNYVLKP [SLC10A2], the median enrichment was 0.355.
For EVDV [PRKCB], the median enrichment was 0.313.
For the substance EVGQPLMSWFLQLSFPLGCIEGFS [RAG1], the median enrichment came out at 6.39.
With “EVGVRSPYSACCPGCAAQLDSASQHLPPRSFLLFIPIFTPKTSLSLFTPPKPLSHAGPLKPQLPTILREHPLPSLPFPALKPA [GSTM2]”, the median enrichment stood at 5.73.
With EVHTVCHRMAHVIAHFCVDMVLV [ATP5IF1] the figure was 11.
As for “EVKGSIQVLHLVLPCLLSDHSDGLMWLLMWNCRRVQRRVCNKAIGKHTGAFPSPSGPRPLSKLDNFLLSCLFPALKLKQEIFW [HS3ST3B1]”, the median enrichment came to 9.3.
Take EVNV [CLEC2B]: the median enrichment is 0.328.
As for “EVQPACSCIQKPATTQPISACAYPDKKTKIPLGKTQALTLLFKWPLQKV [TPD52L1]”, the median enrichment amounted to 13.
For EYKLS [UBA6], the median enrichment is 0.363.
EYPRFKKRT [PPP2R1B]: the median enrichment was determined as 1.16.
With FANCD2 the figure was 5.79 and 4.35.
Turning to FFF [Phe03], the median enrichment worked out at 5.17.
FFFF [Phe04]: the median enrichment was 9.4.
Take FFFFF [Phe05]: the median enrichment stood at 7.46.
FFFFFF [Phe06]: the median enrichment came out at 9.02.
In the case of FFFFFFF [Phe07], the median enrichment was determined as 7.66.
Turning to FFFFFFFF [Phe08], the median enrichment is 9.45.
On to FFFFFFFFF [Phe09], for which the median enrichment is 9.48.
For the substance FFFFFFFFFF [Phe10], the median enrichment amounted to 7.03.
As for “FGHSRTGERQLYFSLGQLQRVGQALMGSDCQSDAVGPRQRKAGRRGARTFSPHCPFPFSGEHRRLLTPTSCEAVAYGVQRSWS [C16orf58]”, the median enrichment was 4.42.
In the case of “FILERNSTNVKNVTKLLSISLTLLHIRKFILEKNPTDVKNVAKPLSTPLNLLHIRDFILERNPTDVNNVVKLFTYPHTLLHIR [ZNF626]”, the median enrichment stood at 8.24.
With “FLELKHPRMPLHVFHSPHLQTSLLFLTRPESKLPSLGNSGEGVSCTTYHTPSHPVSDFGMDSGKLGPSLNRVMYLNVCYFQPP [HSPA1L]” the figure was 6.57; with “FLGTHSHAHCRSINSNPHFRPKIMRPHLVSTFPRPCSKPNPFLPSGSQNLLSPTATTVLPDFSHSNHSRPAMGNRPSPSVLVK [RNF39]”, 4.59.
With FLQRTALIFRFKRLPTR [Degron UPS] the figure was 6.83; with “FPPPPSSGSPRSNVPPATFPLWPPAELICLSHRSWCLPLHRSLNAATLAGSRWKLVEGPCQVTAMLSLSRHGPGSFRHIQILH [S100A7A]”, 8.52; with GAAPQAGVEPDLGTKD [ZNF688], 0.378.
Regarding GACFAVGHPAKQANMETTCNLARLYLV [DDX3X], the median enrichment was 17.6.
With “GAFFLEEESENFQTTAADSALMGCWLIGVLSMGDWNFFFV [ZNHIT6]” the figure was 8.19; with “GAHPKYACHLRPQAGHTGQPACRQDLPASSSQYSLQRLKCEAPAPPSALQPTGPGRTCPLSVSPSRVPRWRPLSTG [PAK6]”, 3.28; with “GAMLPSSSSPPSTGWDRRQVPAHACLRLFPPLGQALGWKLGS [ADCYAP1R1]”, 9.03.
As to GANASRAAVNLCKD [BDKRB2], the median enrichment is 0.298.
With “GAPPPGWTGAWLPSSFLPWLPEETPLTQPAWALTTNTLGHGQPAQDRLPALGHCAPISVLGLGSS [TTYH1]”, the median enrichment was found to be 15.2.
On to GCGLNCRLTK [MYO16], for which the median enrichment came to 0.777.
On to GCM [BET1], for which the median enrichment came out at 0.417.
With GCVLSQIYLLD [HYPK], the median enrichment amounted to 11.9.
With GEKSYKCKECGKPLDDPQTLMNMRKFIL [ZNF141], the median enrichment came out at 6.09.
Regarding “GEVLPGPRRGDREHHCHPGEPGAGAPGACRLRQGRCGRDDAALGCGVGSPKHPRQQPRPWPHQWHRGAPATGWPSGQPEHQGH [DECR2]”, the median enrichment stood at 0.598.
Turning to “GFHSRGCCKQRDCHLELGWQGRAASFDSESSCPSPKPPPTP [SYT6]”, the median enrichment was 0.961.
With “GGAAAAWSLRPSRPPSAAPSAAVCVAWASFQLTHGLKNRCFI [TMEM18]” the figure was 5.44; with “GGAVAANTPASGLLVAAPGDTPAKPTRWRGPPWSLATLPASAQGPLPSPGHLLCRRHSSQKPLSQKRLVFKKSRFFAPEVSFR [AP1M1]”, 5.45; with “GGCRRRPSWCRQAGHRDPGPAQETAFFSRYNRRQKKRVPPLPNRSFWQGVPNAKTQRCGWHLLPHSFKIVKKC [FOXF1]”, 9.48.
On to “GGEERRADLGRALRTWPRARDSPGSSSPWQAQQHVPQIWKGLPLCQCLGGCHGCPHPLLSVCGVEEPTPASCQDHLGGHTPAK [GPRC5C]”, for which the median enrichment amounted to 0.687.
For the substance GGFFC [GBP7], the median enrichment came out at 0.518.
GGG [Gly03]: the median enrichment amounted to 1.62.
Take GGGG [Gly04]: the median enrichment was found to be 5.17.
Regarding GGGGG [Gly05], the median enrichment stood at 1.79.
Consider GGGGGG [Gly06], for which the median enrichment stood at 2.43.
Regarding GGGGGGG [Gly07], the median enrichment is 2.97.
With GGGGGGGG [Gly08] the figure was 1.64; with GGGGGGGGG [Gly09], 3.85.
Turning to GGGGGGGGGG [Gly10], the median enrichment was found to be 11.7.
